Literature values in paper PMC7821625.

How the values were obtained:
[1] = target: plasminogen (Homo sapiens) (UniProt P00747)
[2] = target: fibronectin (Homo sapiens) (UniProt P02751)
Sequence of UniProt P02751 (P02751 32-2477): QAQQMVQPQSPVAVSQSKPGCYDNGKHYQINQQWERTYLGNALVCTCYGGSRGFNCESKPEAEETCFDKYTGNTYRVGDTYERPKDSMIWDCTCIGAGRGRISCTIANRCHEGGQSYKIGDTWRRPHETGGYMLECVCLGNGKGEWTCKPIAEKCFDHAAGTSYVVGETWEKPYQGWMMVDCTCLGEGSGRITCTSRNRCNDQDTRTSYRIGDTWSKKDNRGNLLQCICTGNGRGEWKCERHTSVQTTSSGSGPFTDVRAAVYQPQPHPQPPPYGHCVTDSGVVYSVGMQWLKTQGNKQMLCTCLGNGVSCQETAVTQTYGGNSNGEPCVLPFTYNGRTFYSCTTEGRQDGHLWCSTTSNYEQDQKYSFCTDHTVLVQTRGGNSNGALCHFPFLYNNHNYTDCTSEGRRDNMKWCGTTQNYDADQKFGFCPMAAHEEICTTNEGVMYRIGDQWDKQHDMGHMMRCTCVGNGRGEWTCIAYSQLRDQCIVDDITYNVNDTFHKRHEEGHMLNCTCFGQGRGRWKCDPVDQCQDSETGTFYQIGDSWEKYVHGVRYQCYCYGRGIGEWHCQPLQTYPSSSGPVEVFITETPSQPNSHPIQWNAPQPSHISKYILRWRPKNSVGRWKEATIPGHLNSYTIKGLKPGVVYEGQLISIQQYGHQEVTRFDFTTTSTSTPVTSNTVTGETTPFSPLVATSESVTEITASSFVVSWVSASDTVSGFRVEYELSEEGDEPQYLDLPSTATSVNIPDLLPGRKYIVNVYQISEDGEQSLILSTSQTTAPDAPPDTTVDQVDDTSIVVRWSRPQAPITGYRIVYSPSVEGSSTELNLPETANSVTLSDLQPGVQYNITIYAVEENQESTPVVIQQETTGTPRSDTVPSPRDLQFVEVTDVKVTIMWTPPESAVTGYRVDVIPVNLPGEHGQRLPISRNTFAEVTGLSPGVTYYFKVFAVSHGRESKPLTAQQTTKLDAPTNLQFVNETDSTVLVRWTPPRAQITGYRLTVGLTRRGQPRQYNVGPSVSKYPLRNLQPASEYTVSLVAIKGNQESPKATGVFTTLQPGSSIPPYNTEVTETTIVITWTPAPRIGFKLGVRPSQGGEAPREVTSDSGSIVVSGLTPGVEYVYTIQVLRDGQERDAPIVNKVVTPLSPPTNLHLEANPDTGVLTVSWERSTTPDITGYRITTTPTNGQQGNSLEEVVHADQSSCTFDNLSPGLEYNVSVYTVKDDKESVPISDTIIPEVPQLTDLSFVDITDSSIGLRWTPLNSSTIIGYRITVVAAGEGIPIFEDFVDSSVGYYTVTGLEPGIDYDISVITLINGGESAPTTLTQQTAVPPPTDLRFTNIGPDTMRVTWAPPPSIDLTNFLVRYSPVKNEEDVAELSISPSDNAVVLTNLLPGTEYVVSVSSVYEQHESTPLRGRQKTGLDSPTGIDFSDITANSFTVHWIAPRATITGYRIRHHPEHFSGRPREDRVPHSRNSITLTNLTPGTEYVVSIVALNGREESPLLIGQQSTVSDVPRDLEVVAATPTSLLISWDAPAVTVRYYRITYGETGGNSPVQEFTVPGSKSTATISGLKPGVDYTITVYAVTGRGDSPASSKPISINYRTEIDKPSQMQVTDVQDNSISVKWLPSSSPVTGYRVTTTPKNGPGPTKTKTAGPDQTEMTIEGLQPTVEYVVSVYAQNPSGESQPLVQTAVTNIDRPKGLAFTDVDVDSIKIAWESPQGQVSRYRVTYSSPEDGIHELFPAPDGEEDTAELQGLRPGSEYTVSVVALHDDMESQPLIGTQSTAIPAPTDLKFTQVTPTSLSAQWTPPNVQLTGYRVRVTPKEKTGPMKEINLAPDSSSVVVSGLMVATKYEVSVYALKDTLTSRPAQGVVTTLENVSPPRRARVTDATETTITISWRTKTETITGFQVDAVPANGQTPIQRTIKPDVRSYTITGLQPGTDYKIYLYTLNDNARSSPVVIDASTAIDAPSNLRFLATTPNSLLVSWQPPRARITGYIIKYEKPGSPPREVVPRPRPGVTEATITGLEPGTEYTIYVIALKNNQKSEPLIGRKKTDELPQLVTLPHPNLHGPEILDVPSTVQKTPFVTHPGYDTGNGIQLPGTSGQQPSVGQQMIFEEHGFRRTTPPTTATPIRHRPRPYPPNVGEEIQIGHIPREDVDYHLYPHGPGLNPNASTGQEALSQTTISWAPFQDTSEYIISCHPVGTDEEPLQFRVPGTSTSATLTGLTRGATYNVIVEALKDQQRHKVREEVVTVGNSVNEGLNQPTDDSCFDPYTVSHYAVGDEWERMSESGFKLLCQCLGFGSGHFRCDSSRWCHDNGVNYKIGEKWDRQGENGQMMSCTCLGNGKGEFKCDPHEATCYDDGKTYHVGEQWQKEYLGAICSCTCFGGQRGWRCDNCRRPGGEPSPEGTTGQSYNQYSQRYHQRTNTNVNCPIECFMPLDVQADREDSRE

Sequence of UniProt P00747 (P00747 20-810): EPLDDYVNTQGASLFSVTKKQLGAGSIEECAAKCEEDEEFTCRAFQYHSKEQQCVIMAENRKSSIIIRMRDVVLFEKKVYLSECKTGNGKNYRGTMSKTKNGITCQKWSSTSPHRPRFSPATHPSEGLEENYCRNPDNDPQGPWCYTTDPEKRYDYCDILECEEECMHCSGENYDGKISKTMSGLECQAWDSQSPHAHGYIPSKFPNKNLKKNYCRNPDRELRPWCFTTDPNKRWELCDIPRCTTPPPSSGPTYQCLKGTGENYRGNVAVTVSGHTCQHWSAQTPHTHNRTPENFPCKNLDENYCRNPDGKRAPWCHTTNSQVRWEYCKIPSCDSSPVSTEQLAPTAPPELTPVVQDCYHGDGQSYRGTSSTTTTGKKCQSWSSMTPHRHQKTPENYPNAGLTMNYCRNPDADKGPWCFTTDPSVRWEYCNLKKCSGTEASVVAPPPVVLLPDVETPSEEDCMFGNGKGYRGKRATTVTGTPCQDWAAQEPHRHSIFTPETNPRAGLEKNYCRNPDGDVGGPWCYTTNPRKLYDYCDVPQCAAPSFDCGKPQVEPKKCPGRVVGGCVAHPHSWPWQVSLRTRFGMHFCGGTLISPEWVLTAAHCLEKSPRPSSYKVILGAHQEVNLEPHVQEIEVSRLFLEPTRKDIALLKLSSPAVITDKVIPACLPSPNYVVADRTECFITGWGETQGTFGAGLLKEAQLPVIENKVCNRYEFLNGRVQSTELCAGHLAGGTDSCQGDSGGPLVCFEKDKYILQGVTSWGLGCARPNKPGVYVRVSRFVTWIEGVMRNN

LigA LigA7'-13 (from UniProt Q72MA6)
Kd [1]: 1200 nM | Kd [2]: 126 nM
